The source of these data is the FLAb antibody collection (doi:10.1101/2023.12.08.570889).

Positions count from the first letter of the chain named.

The Kd is the constant that tells how readily two partners part at equilibrium. Higher therefore signals weaker binding.

The target of one test is C5, P01031. Kind of test: Kd (SPR).
For another test, the target named is FXI. As to the kind of experiment: Kd (SPR).

B1: unnamed (protein)
chain 1: QVQLVQSGAEVKKPGASVKVSCKASGYIFSNYWIQWVRQAPGQGLEWMGEILPGSGSTEYTENFKDRVTMTRDTSTSTVYMELSSLRSEDTAVYYCARLYYGDTPIIYFDYWGQGTLVTVSS
chain 2: DIQMTQSPSSLSASVGDRVTITCGASENIYGALNWYQQKPGKAPKLLIYGATNLADGVPSRFSGSGSGTDFTLTISSLQPEDFATYYCQNVLNTPLTFGQGTKVEIK
In the test with C5, P01031, B1 registered a Kd of 324 nM. In other words, the sub-micromolar range.

B2: unnamed (protein)
chain 1: B1 chain 1 with I28T, S30T, N31S, L52K, S57Y, L99H, Y100E
chain 2: B1 chain 2
B2 had a Kd in the test with C5, P01031 of 293 nM.

B3: unnamed (protein)
chain 1: B1 chain 1 with L99Y, Y100E
chain 2: B1 chain 2
B3 showed an equilibrium dissociation constant (Kd) with C5, P01031 of 275 nM.

B4: unnamed (protein)
chain 1: B1 chain 1 with I28T, S30T, N31S, L52H, S57Y, L99Y, I106Y
chain 2: B1 chain 2
B4 showed a Kd with C5, P01031 of 267 nM.

B5: unnamed (protein)
chain 1: B1 chain 1 with I28T, S30T, N31S, L52K, S57Y, L99Y, Y100R
chain 2: B1 chain 2
In the test with C5, P01031, B5 had a Kd of 507 nM. This Kd lies about 1.9-fold higher than the previous one.

B6: unnamed (protein)
chain 1: B1 chain 1 with I28T, S30T, N31S, L52H, S57E, L99Y, Y100R
chain 2: B1 chain 2
In the test with C5, P01031, B6 yielded a Kd of 251 nM.

B7: unnamed (protein)
chain 1: B1 chain 1 with Y100R, I106Y
chain 2: B1 chain 2
In the test with C5, P01031, B7 showed a Kd of 2510 nM. Against the preceding molecule, the Kd is about 10-fold higher.

B8: unnamed (protein)
chain 1: B1 chain 1 with L99H, I106D
chain 2: B1 chain 2
B8 showed a Kd in the test with C5, P01031 of 1700 nM.

B9: unnamed (protein)
chain 1: B1 chain 1 with L99Y
chain 2: B1 chain 2
For the molecule B9, the Kd with C5, P01031 is 126 nM.

B10: unnamed (protein)
chain 1: B1 chain 1 with I28T, S30T, N31S, L52H, S57E, L99Y, Y100R, I106Y
chain 2: B1 chain 2
In the test with C5, P01031, B10 gave a Kd of 399 nM.

B11: unnamed (protein)
chain 1: B1 chain 1 with I28T, S30T, N31S, L52H, S57Y, L99Y, Y100R
chain 2: B1 chain 2
Regarding B11, the Kd with C5, P01031 was determined as 2300 nM.

B12: unnamed (protein)
chain 1: B1 chain 1 with L99Y, I106Y
chain 2: B1 chain 2
On to B12, for which the Kd in the test with C5, P01031 was determined as 127 nM.

B13: unnamed (protein)
chain 1: B1 chain 1 with I28T, S30T, N31S, L52Q, S57Y, L99Y, Y100R
chain 2: B1 chain 2
With B13, the Kd with C5, P01031 came out at 622 nM.

B14: unnamed (protein)
chain 1: B1 chain 1 with L99Y, Y100E, I106Y
chain 2: B1 chain 2
Molecule B14 returned a dissociation constant (Kd) with C5, P01031 of 915 nM.

B15: unnamed (protein)
chain 1: B1 chain 1 with I28T, S30T, N31S, L52H, S57Y, L99Y, Y100R, I106F
chain 2: B1 chain 2
Molecule B15 yielded a Kd with C5, P01031 of 1190 nM.

B16: unnamed (protein)
chain 1: B1 chain 1 with I28T, S30T, N31S, L52H, S57Y, Y100R
chain 2: B1 chain 2
For B16, the Kd with C5, P01031 was determined as 3600 nM. This Kd lies about 3-fold higher than the previous one.

B17: unnamed (protein)
chain 1: B1 chain 1 with I28T, S30T, N31S, L52H, S57Y, L99Y, Y100R, I106D
chain 2: B1 chain 2
For B17, the Kd with C5, P01031 is 597 nM.

B18: unnamed (protein)
chain 1: EVQLLESGGGLVQPGGSLRLSCAASGFTFSQYGMDWVRQAPGKGLEWVSGIGPSGGSTVYADSVKGRFTISRDNSKNTLYLQMNSLRAEDTAVYYCTRDGPWYYYGFDVWGQGTTVTVSS
chain 2: DIQMTQSPSSLSASVGDRVTITCQASQDISNYLNWYQQKPGKAPKLLIYDASNLETGVPSRFSGSGSGTDFTFTISSLQPEDIATYYCQQADSFPVTFGGGTKVEIK
As to B18, the Kd in the test with FXI amounted to 46 nM.

B19: unnamed (protein)
chain 1: B18 chain 1 with D99G, W102S, G106A
chain 2: B18 chain 2
Take B19: the dissociation constant Kd with FXI came to 1370 nM. This Kd lies about 30-fold higher than the previous one.
